Assay results published in patent publication US10596234B2, “Compositions and methods to inhibit viral replication” (priority 2016, dated 2020).

B1: C850S (protein)
chain: MADRGLPSEAPVVTTSPAGPPSDGPMQRLLASLAGLRQPPTPTAETANGADDPAFLATAKLRAAMAAFLLSGTAIAPADARDCWRPLLEHLCALHRAHGLPETALLAENLPGLLVHRLVVALPEAPDQAFREMEVIKDTILAVTGSDTSHALDSAGLRTAAALGPVRVRQCAVEWIDRWQTVTKSCLAMSPRTSIEALGETSLKMAPVPLGQPSANLTTPAYSLLFPAPFVQEGLRFLALVSNRVTLFSAHLQRIDDATLTPLTRALFTLALVDEYLTTPERGAVVPPPLLAQFQHTVREIDPAIMIPPLEANKMVRSREEVRVSTALSRVSPRSACAPPGTLMARVRTDVAVFDPDVPFLSSSALAVFQPAVSSLLQLGEQPSAGAQQRLLALLQQTWTLIQNTNSPSVVINTLIDAGFTPSHCTHYLSALEGFLAAGVPARTPTGHGLGEVQQLFGCIALAGSNVFGLAREYGYYANYVKTFRRVQGASEHTHGRLCEAVGLSGGVLSQTLARIMGPAVPTEHLASLRRALVGEFETAERRFSSGQPSLLRETALIWIDVYGQTHWDITPTTPATPLSALLPVGQPSHAPSVHLAAATQIRFPALEGIHPNVLADPGFVPYVLALVVGDALRATCSAAYLPRPVEFALRVLAWARDFGLGYLPTVEGHRTKLGALITLLEPAARGGLGPTMQMADNIEQLLRELYVISRGAVEQLRPLVQLQPPPPPEVGTSLLLISMYALAARGVLQDLAERADPLIRQLEDAIVLLRLHMRTLSAFFECRFESDGRRLYAVVGDTPDRLGPWPPEAMGDAVSQYCSMYHDAKRALVASLASLRSVITETTAHLGVSDELAAQVSHEDNVLAVVRREIHGFLSVVSGIHARASKLLSGDQVPGFCFMGQFLARWRRLSACYQAARAAAGPEPVAEFVQELHDTWKGLQTERAVVVAPLVSSADQRAAAIREVMAHAPEDAPPQSPAADRVVLTSRRDLGAWGDYSLGPLGQTTAVPDSVDLSRQGLAVTLSMDWLLMNELLRVTDGVFRASAFRPLAGPESPRDLEVRDAGNSLPAPMPMDAQKPEAYGHGPRQADREGAPHSNTPVEDDEMIPEDTVAPPTDLPLTSYQ
B2: RIG-I-QQ (protein)
chain: MTTEQRRSLQAFQDYIRKTLDPTYILSYMAPWFREEEVQYIQAEKNNKGPMEAATLFLKFLLELQEEGWFRGFLDALDHAGYSGLYEAIESWDFKKIEKLEEYRLLLKRLQPEFKTRIIPTDIISDLSECLINQECEEILQICSTKGMMAGAEKLVECLLRSDKENWPKTLKLALEKERNKFSELWIVEKGIKDVETEDLEDKMETSDIQIFYQEDPECQNLSENSCPPSEVSDTNLYSPFKPRNYQLELALPAMKGKNTIICAPTGCGKTFVSLLICEHHLKKFPQGQKGKVVFFANQIPVYEQQKSVFSKYFERHGYRVTGISGATAENVPVEQIVENNDIIILTPQILVNNLKKGTIPSLSIFTLMIFDECHNTSKQHPYNMIMFNYLDQKLGGSSGPLPQVIGLTASVGVGDAKNTDEALDYICKLCASLDASVIATVKHNLEELEQVVYKPQKFFRKVESRISDKFKYIIAQLMRDTESLAKRICKDLEQLSQIQNREFGTQKYEQWIVTVQKACMVFQMPDKDEESRICKALFLYTSHLRKYQDALIISEHARMKDALDYLKDFFSNVRAAGFEEIEQDLTQRFEEKLQELESVSRDPSNENPKLEDLCFILQEEYHLNPETITILFVKTRALVDALKNWIEGNPKLSFLKPGILTGRGKTNQNTGMTLPAQKCILDAFKASGDHNILIATSVADEGIDIAQCNLVILYEYVGNVIKMIQTRGRGRARGSKCFLLTSNAGVIEKEQINMYKEKMMNDSILRLQTWDEAVFREKILHIQTHEKFIRDSQEKPKPVPDKENKKLLCRKCKALACYTADVRVIEECHYTVLGDAFKECFVSRPHPKPKQFSSFEKRAKIFCARQNCSHDWGIHVKYKTFEIPVIKIESFVVEDIATGVQTLYSKWKDFHFEKIPFDPAEMSK

How the values were obtained:
PRDIII promoter = assay: Dual-luciferase reporter assay (PRDIII, SeV infection); assay type: cell-based, human; settings: 293T cells, SeV 100 HAU/ml
Protocol: HEK293T cells, seeded in 24-well plates (˜50% cell density), were transfected with IFN-β, PRDIII (ISRE) or NF-κB reporter plasmid cocktail (50 ng of luciferase reporter plasmid and 5 ng of pRL Renilla luciferase control vector) and expression plasmid (empty plasmid, one or multiple plasmids depending on the experiment) by calcium phosphate precipitation. Cells were infected with SeV (100 HA/ml), HSV-1 for 16 h, transfected with Poly [I:C] for 16 h or directly harvested 30-36 h post transfection. Whole cell lysates were used to determine the activity of firefly luciferase and renilla luciferase by a microplate reader (FLUOstar Omega).

cGAS [1] = assay: cGAMP reporter assay (THP1-Lucia); assay type: cell-based, human; settings: THP-1 cells transfected with HT-DNA (HT-DNA alone approximately 60 ng)
Protocol: THP-1 Cells were transfected with HT-DNA (2 μg/ml) or infected with HSV-1 virus for 6 h. Cell extracts were prepared by heating at 95° C. for 5 min to denature most proteins, and then the precipitated proteins were removed by centrifugation. The supernatant containing cGAMP was delivered to digitonin-permeabilized (2.5 μg/ml for 30 min) THP1-Lucia cells at 37° C. for 30 min. The cells were cultured for another 20 h before Lucia reporter activity was measured according to the manufacturer's instruction (InvivoGen). Pure cGAMP was diluted and used as standard for the assay.

cGAS [2] = assay: Real-time PCR in THP-1 cells stably expressing UL37, transfected with HT-DNA; assay type: cell-based, human; settings: THP-1 stable cell lines
Protocol: THP-1 or L929 cells were infected with HSV-1 (MOI=5) or stimulated with HT-DNA (2 μg/ml) or cGAMP (2 μg/ml) for 6 h unless specifically indicated otherwise. Cells were washed with cold PBS, and total RNA was extracted by using TRIzol Reagent (Invitrogen). RNA was digested with DNase I (New England Biolabs) to remove genomic DNA. One microgram of total RNA was used for reverse transcription with PrimeScript Reverse Transcriptase (Clontech) according to the manufacturer's instruction. Approximately 0.5% of the cDNA was used as template in each quantitative real-time PCR (qRT-PCR) reaction with SYBR master mix (Applied biosystems).
Lentivirus production was carried out in 293T cells as described previously. THP-1 or L929 cells were infected with lentivirus containing UL37 or UL37 C819S mutant. After 36 h, THP-1 cells were selected with puromycin at 1 μg/ml and L929 cells were selected with puromycin at 5 μg/ml.

cGAS [3] = assay: In vitro deamidation assay (cGAS); assay type: biochemical, mouse; settings: purified proteins
Protocol: The in vitro deamidation assay was performed as previously described. Briefly, 5 μg of purified MBP-mcGAS or MBP-mcGAS-DDEE mutant on amylose resin was incubated with 0.5 gig of purified FLAG-UL37 or FLAG-UL37C819S at 30° C. for 45 min in deamidation buffer (50 mM Tris-HCl [pH 7.5], 100 mM NaCl, and 5 mM MgCl2). Then the reaction was stopped by adding rehydration buffer and the eluted proteins were analyzed by two-dimensional gel electrophoresis.

cGAS [4] = biological target: T1, cGAS (Mus musculus, UniProt Q8C6L5); assay: In vitro cGAMP activity assay; assay type: biochemical; settings: in vitro cGAMP reaction
T1 construct: Purified mcGAS(141-507) was deamidated by purified FLAG-UL37 in vitro; made in house; host or cells: E. coli BL21 (DE3)
T1 sequence (Q8C6L5 141-507): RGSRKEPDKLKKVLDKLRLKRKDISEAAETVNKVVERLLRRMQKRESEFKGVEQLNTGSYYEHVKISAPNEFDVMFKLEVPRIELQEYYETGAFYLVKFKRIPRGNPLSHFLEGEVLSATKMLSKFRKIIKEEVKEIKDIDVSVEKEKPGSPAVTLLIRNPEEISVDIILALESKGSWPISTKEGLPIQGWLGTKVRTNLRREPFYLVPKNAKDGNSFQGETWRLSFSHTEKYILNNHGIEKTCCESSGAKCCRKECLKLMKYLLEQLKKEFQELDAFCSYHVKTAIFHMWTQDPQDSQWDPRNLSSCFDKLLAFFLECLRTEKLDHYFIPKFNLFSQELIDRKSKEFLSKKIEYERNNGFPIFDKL
Protocol: 1 μM of MBP-cGAS or mutant proteins was mixed with 100 μM ATP and 100 μM GTP and 10 μCi [α-P32]-ATP in reaction buffer (20 mM Tris-Cl [pH 7.5], 150 mM NaCl, 5 mM MgCl2, 1 mM dithiothreitol [DTT]). After 2 h of incubation at 37° C., 2 μl of reaction solution was spotted onto PEI-Cellulose thin layer chromatography plate (Sigma). Reaction products were resolved with running buffer (1 M (NH4)2SO4, 1.5 M KH2PO4, pH 3.8). The TLC plates were dried and scanned with Phosphoimager (Fuji).

HSV-1 = HSV-1 plaque assay in HEK293 cells stably expressing RIG-I wild-type or mutants; assay type: cell-based; settings: HEK293 stable cells, HSV-1 MOI=0.5
IFN-β and RANTES = assay: Cytokine ELISA, HEK293 RIG-I stable cell lines infected with HSV-1; assay type: cell-based, human; settings: HSV-1-infected cells, supernatant at 16 hpi
Protocol: Commercial cytokine ELISA kits used in this study include: human IFN-β (PBL Assay Science) and human RANTES (R&D Systems). Cytokine levels in the supernatant from cultured cells were assessed according to manufacturer's instruction. Absorbance was determined with FLUOstar Omega (BMG Labtech.).

RIG-I [5] = assay: Two-dimensional gel electrophoresis of RIG-I deamidation in cells; assay type: cell-based, human; settings: 2-DGE and immunoblotting
Protocol: Cells (1×10^6) were lysed in 150 μl rehydration buffer (8 M Urea, 2% CHAPS, 0.5% IPG Buffer, 0.002% bromophenol blue) by three pulses of sonication and whole cell lysates were centrifuged at 20,000 g for 15 min. Supernatants were loaded to IEF strips for focusing with a program comprising: 20 V, 10 h (rehydration); 100 V, 1 h; 500 V, 1 h; 1000 V, 1 h; 2000 V, 1 h; 4000 V, 1 h; 8000 V, 4 h. After IEF, strips were incubated with SDS equilibration buffer (50 mM Tris-HCl [pH8.8], 6 M urea, 30% glycerol, 2% SDS, 0.001% Bromophenol Blue) containing 10 mg/ml DTT for 15 min and then SDS equilibration buffer containing 2-iodoacetamide for 15 min. Strips were washed with SDS-PAGE buffer, resolved by SDS-PAGE, and analyzed by immunoblotting.

RIG-I [6] = assay: Gel filtration of purified RIG-I (oligomerization); assay type: cell-based, human; settings: cells infected with HSV-1, 4 h
Protocol: Virus-infected HEK293T/Flag-RIG-I or HeLa/Flag-RIG-I stable cells were harvested and lysed in cold Triton X-100 buffer (20 mM Tris, pH 7.5, 150 mM NaCl, 1.5 mM MgCl2, 20 mM β-glycerophosphate, 1 mM sodium orthovanadate, 10% glycerol, 0.5 mM EGTA, 0.5% Triton X-100, 1 mM PMSF and 10 μg/ml leupeptin). Centrifuged supernatant was filtered and subjected to incubation with anti-Flag-conjugated agarose beads for 2 h at 4° C. Beads were then extensively washed and proteins were eluted with 3× Flag peptide at 0.2 mg/ml.
Gel filtration with superose 6 was performed as described previously. Briefly, eluted proteins (200-300 μl) were loaded to superose 6 column and subjected to gel filtration analysis with Buffer B (20 mM Tris-HCl, pH 7.6, 150 mM NaCl, 1 mM EDTA, 0.5 mM EGTA, 0.5% Triton X-100, 20 mM NaF, 20 mM β-glycerophosphate, 1 mM Na3VO4, 2.5 mM metabisulphite [sodium salt], 5 mM benzamidine). Elution was collected in 0.5 ml fractions and aliquots of fractions were analyzed by immunoblotting.

Molecule	blockade of SeV-induced PRDIII promoter activation (PRDIII promoter)	intracellular cGAMP (cGAS [1])	effect on expression of IFNB1, ISG56 and CXCL10 induced by HT-DNA (cGAS [2])	cGAS deamidation in vitro (2DGE shift) (cGAS [3])	effect of added UL37 on cGAS-mediated cGAMP production (cGAS [4])	reduction of HSV-1 replication / titer (HSV-1)	IFN-β and RANTES in supernatant (IFN-β and RANTES)	charge shift of RIG-I (deamidation) upon UL37 expression or recombinant HSV-1 infection (RIG-I [5])	size of RIG-I elution fractions (oligomerization) (RIG-I [6])
UL37C819S	greatly impaired blockade of PRDIII induction by SeV	~85 ng per one million THP-1 cells	no detectable effect on IFNB1 and ISG56 expression	failed to do so	less, albeit still significant, inhibition of cGAMP production				
B1	greatly impaired blockade of PRDIII induction by SeV								
B2						75-90%	Increased IFN-β and RANTES expression	deamidation-resistant	440-670 kDa
